Results on four molecules are retold here after publication PMC11994318, “In vitro characterization of the yeast DEAH/RHA RNA helicase Dhr1” (The Journal of Biological Chemistry, 2025).

Substitutions are numbered along the chain they refer to. Ends that are not written are not given here. * marks the point of attachment. 6FAM = O=C1OC2(c3ccc(O)cc3Oc3cc(O)ccc32)c2cc(C(=O)*)ccc21

Sequences and labels used below:
T1: Utp14-G (aa 710–800), fusion to maltose binding protein (Saccharomyces cerevisiae, UniProt Q04500 710-800)
T1 construct: Purified as a fusion to MBP; the tag is cleavable with TEV protease but no cleavage is described; source: E. coli Codon+ BL21 (DE3) RIL (AJE854), purified (HisTrap HP, HiTrap Q HP); not shown: MBP, N-terminal, kept
T1 sequence (looked up): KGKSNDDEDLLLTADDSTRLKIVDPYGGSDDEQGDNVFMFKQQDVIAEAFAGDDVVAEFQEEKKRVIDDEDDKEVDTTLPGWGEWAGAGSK

B1: ΔN-Dhr1-ΔSKTTD (domain or fragment, Saccharomyces cerevisiae, UniProt Q04217 376-1267, looked up)
chain: VEVSRSDEIQKARIQLPVFGEEHKIMEAIHHNDVVIICGETGSGKTTQVPQFLYEAGFGAEDSPDYPGMVGITQPRRVAAVSMAERVANELGDHGHKVGYQIRFDSTAKEDTKVKFMTDGVLLREMMHDFKLTKYSSIIIDEAHERNINTDILIGMLSRCVRLRAKLHKENPIEHKKLKLIIMSATLRVSDFSENKTLFPIAPPVLQVDARQFPVSIHFNRRTAFNYTDEAFRKTCKIHQKLPPGAILVFLTGQQEITHMVKRLRKEFPFKKNSKYNKDLETPVSKMGINLEAEDIDFSVQVIDQDKFKSAIRYEEDEGNSGNGEDEEDEEEEGFEEVLTEGQTANDPLYVLPLYSLLPTKEQMRVFQKPPQGSRLCIVATNVAETSLTIPGVRYVVDSGRSKERKYNESNGVQSFEVGWVSKASANQRSGRAGRTGPGHCYRLYSSAVFEHDFEQFSKPEILRMPVESIVLQMKSMAIHNIINFPFPTPPDRVALSKAIQLLQYLGALDNKEMITEDGKKMSLFPLSPRFSKMLLVSDEKACLPYIVAIVSALSVGDPFINEFELGINEISRKPNPDENLDDKIREHDESTPGMDPELKKELRSKFYKSRSQFSKLDKFSDVFRLLSVVSAMDYVPKEQKEIFMKKNFLRGKLMEEIVKLRKQLMYIIKSNTSKENIAVVIRNEDLKSDIPSVIQIKLLKQMICAGFVDHVAVRADVLFPDDAKITNRTSIINIPYIPVLATRTPNIEDCFVYIHPTSILNNLGEMPPKYMLYYSLHLGGNNKTRMNTLCDIASTPLANIARKGLLLTYSKPLTGQGLKTVNLSPTERYCYVVPRFGSTVDNDLKIGWDLNPIAVHQKKQKGQWTVIKFITRKGFQTITGEEKEKK
notes: Dhr1 (Ecm16) of Saccharomyces cerevisiae, residues 1-375 deleted and the five residues SKTTD (aa 666-670) of loop 1 deleted; also called ΔN-ΔSKTTD; ΔNΔSKTTD; source: E. coli Codon+ BL21 (DE3) RIL (AJE854), purified (HisTrap FF, HiTrap Capto SP)
B2: ΔN-Dhr1-WT (Δ1 to 375-Dhr1) (domain or fragment, Saccharomyces cerevisiae, UniProt Q04217 376-1267, looked up)
chain: VEVSRSDEIQKARIQLPVFGEEHKIMEAIHHNDVVIICGETGSGKTTQVPQFLYEAGFGAEDSPDYPGMVGITQPRRVAAVSMAERVANELGDHGHKVGYQIRFDSTAKEDTKVKFMTDGVLLREMMHDFKLTKYSSIIIDEAHERNINTDILIGMLSRCVRLRAKLHKENPIEHKKLKLIIMSATLRVSDFSENKTLFPIAPPVLQVDARQFPVSIHFNRRTAFNYTDEAFRKTCKIHQKLPPGAILVFLTGQQEITHMVKRLRKEFPFKKNSKYNKDLETPVSKMGINSKTTDLEAEDIDFSVQVIDQDKFKSAIRYEEDEGNSGNGEDEEDEEEEGFEEVLTEGQTANDPLYVLPLYSLLPTKEQMRVFQKPPQGSRLCIVATNVAETSLTIPGVRYVVDSGRSKERKYNESNGVQSFEVGWVSKASANQRSGRAGRTGPGHCYRLYSSAVFEHDFEQFSKPEILRMPVESIVLQMKSMAIHNIINFPFPTPPDRVALSKAIQLLQYLGALDNKEMITEDGKKMSLFPLSPRFSKMLLVSDEKACLPYIVAIVSALSVGDPFINEFELGINEISRKPNPDENLDDKIREHDESTPGMDPELKKELRSKFYKSRSQFSKLDKFSDVFRLLSVVSAMDYVPKEQKEIFMKKNFLRGKLMEEIVKLRKQLMYIIKSNTSKENIAVVIRNEDLKSDIPSVIQIKLLKQMICAGFVDHVAVRADVLFPDDAKITNRTSIINIPYIPVLATRTPNIEDCFVYIHPTSILNNLGEMPPKYMLYYSLHLGGNNKTRMNTLCDIASTPLANIARKGLLLTYSKPLTGQGLKTVNLSPTERYCYVVPRFGSTVDNDLKIGWDLNPIAVHQKKQKGQWTVIKFITRKGFQTITGEEKEKK
notes: Dhr1 (Ecm16), DEAH/RHA RNA helicase of Saccharomyces cerevisiae, residues 1-375 deleted; Cloned into pET21a(+) with a C-terminal Hisx6 tag; also called ΔN-WT; dhr1-Δ1–375 (ΔN); source: E. coli Codon+ BL21 (DE3) RIL (AJE854), purified (HisTrap FF, HiTrap Capto SP)
B3: Utp14-A′ (UTP14 746–780), 6-FAM-labelled peptide (peptide)
peptide: 6FAM-VFMFKQQDVIAEAFAGDDVVAEFQEEKKRVIDDED
notes: also called Utp14 fragment; source: synthetic peptide (Genscript)
B4: ΔN-Dhr1-YCK (RecA2 surface mutant) (domain or fragment, Saccharomyces cerevisiae, UniProt Q04217 376-1267, looked up)
chain: B2 chain with H218Y, R221C, E456K
notes: Dhr1 (Ecm16) of Saccharomyces cerevisiae, residues 1-375 deleted, with three mutations on the RecA2 surface; also called ΔN-Dhr1-RecA2; ΔN-Dhr1-RecA2-mutants; source: E. coli Codon+ BL21 (DE3) RIL (AJE854), purified (HisTrap FF, HiTrap Capto SP)

What all share (conditions): both partners purified
Assay [1] addresses T1, Utp14-G (aa 710–800), fusion to maltose …. Kind of assay: mass photometry; Dhr1 variant and Utp14-G mixed at a 1:1 ratio; TwoMP instrument, room temperature (25.3 °C); 40 mM Tris–HCl pH 8.0, 40 mM KCl, 150 mM NaCl, 2 mM NaOAc, 2 mM DTT, 10 mM MgCl2, 4% glycerol.
Assay [2] deals with B2. Put plainly: fluorescence polarisation; 1.25 nM 6-FAM-labelled Utp14-A′ peptide titrated with Dhr1 variants; 25 °C; 40 mM Tris–HCl pH 8.0, 40 mM KCl, 150 mM NaCl, 2 mM NaOAc, 2 mM DTT, 10 mM MgCl2, 4% glycerol, 0.05% Tween 20; saturation not reached, no Kd calculated.
In the assay “ΔN-Dhr1-ΔSKTTD” the target is B1. The assay is described as above.
Assay [3] deals with B4. The assay is described as above.

For B1, in assay [1], the percent complex was 48%.
On the same count and under the same terms, as for B2, the figure is 23%.
Turning to B3, the binding result (in assay [2]; in the assay with ΔN-Dhr1-ΔSKTTD; in assay [3]) was “binds” in each case.
Regarding B4, the percent complex in assay [1] was 16%.
